Results from the RNAGym collection of RNA variant scans (doi:10.1073/pnas.2313332121).

B1: TPR t1 (parent)
chain: GACCAAUCUGCCCUCAGAGCUCGAGAACAUCUUCGGAUGCAGAGGAGGCAGGCUUCGGUGGCGCGAUAGCGCCAACGUCCUCAACCUCCAAUGCAUCCCACCACAUGAUGAUGCCUGAAGAGCCUUGGUUUUUUG

Variants of: B1
Assay: polymerase ribozyme fitness, log enrichment relative to wild type (log ratio); higher = more active; in vitro selection for triplet polymerase activity
In short: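 A single round of triplicate in vitro selection, including frozen incubation at −7 °C, was applied to PCR-built, transcribed mutant libraries of each subunit of a heterodimeric triplet polymerase ribozyme. Illumina sequencing of input and output libraries retained genotypes with ≥10 input reads and ≥1 read per output. Fitness is the base-2 logarithm of genotype enrichment divided by wild-type enrichment, from inverse-variance-weighted replicate averages.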

Point of comparison: GACCAAUCUGCCCUCAGAGCUCGAGAACAUCUUCGGAUGCAGAGGAGGCAGGCUUAGGUGGGGCGAUAGCGCCAACGUCCUCAACCUCCAAUGCAUCCCACCACAUGAUGAUGCCUGAAGAGCCUUGGUUUUUUG, “polymerase ribozyme fitness (log ratio)” value -3.98. Against it:
- GACCAAUCUGCCCUCAGAGCUCGAGAACAUCUUCGGAUGCAGAGGAGGCAGGCUGCGGUGGCGCGAUAGCACCAACGUCCUCAACCUCCAAUGCAUCCCAACACAUGAUGAUGCCUGAAGAGCCUUGGUUUUUUG — higher, -1.24
- GACCAAUCUGCCCUCAGAGCUCGAGAACAUCUUCGGAUGCAGAGGAGGCAGGCUUAGGUGGUGCGAUAGCGCCAACGUCCUCAAUCUCCAAUGCAUCCCACCACAUGAUGAUGCCUGAAGAGCCUUGGUUUUUUG — higher, -1.64
- GACCAAUCUGCCCUCAGAGCUCGAGAACAUCUUCGGAUGCAGAGGAGGCAGGCUGCGGUAGCGCGAUAGCGCCAACGUCCUCAACCUCAAAUGCAUCCCACCACAUGAUGAUGACUGAAGAGCCUUGGUUUUUUG — higher, -2.87
- GACCAAUCUGCCCUCAGAGCUCGAGAACAUCUUCGGAUGCAGAGGAGGCAGGCUUAGGUGGCGCGAUAGCGCCAACGUCCUCAACCUCCAAUGCAUCCCACCACAUGAUGUUGCCUGAAGAGCCUUGGUUUUUUG — higher, -3.34
- GACCAAUCUGCCCUCAGAGCUCGAGAACAUCUUCGGAUGCAGAGGAGGCAGGCUUAGGUGGCGCGAUAGCGCCAACGUCCUCAACCUCCAAUGCAUCCCACCACAUGAUGCUGCCUGAAGAGCCUUGGUUUUUUG — higher, -0.279
- GACCAAUCUGCCCUCAGAGCUCGAGAACAUCUUCGGAUGCAGAGGAGGCAGGCUUAGGUGGCGCGAUAGCGACAAUGUCCUCAACCUCCAAUGCAUCCCACCACAUGAUGAUGCCGGAAGAGCCUUGGUUUUUUG — within 0.2 log units, -3.97
- GACCAAUCUGCCCUCAGAGCUCGAGAACAUCUUCGGAUGCAGAGGAGGCAGGCUUAGGUGGCGUGAUAGCGCCAACGUCCUCAACCUCCAAUGCAUCCCACCACAUGAUGAUGCAUGAAGAGCCUCGGUUUUUUG — higher, -2.05
- GACCAAUCUGCCCUCAGAGCUCGAGAACAUCUUCGGAUGCAGAGGAGGCAGGCUGCGGUGGCGCGAUACCGCCAACGUCCUCAACCUCCAAUGCAUCCCACCACAUGAUGAUGCCUGAAGAGCCUUGGUUUUUUG — higher, -1.57
- GACCAAUCUGCCCUCAGAGCUCGAGAACAUCUUCGGAUGCAGAGGAGGCAGGCUGCGGUGGCGCGAUAACGCCAACGUCCUCAACCUCCAAUGCAUCCCACCACAUGAUGAUGCCUGAAGAGCCUUGGUUUUUUG — higher, -1.67
- GACCAAUCUGCCCUCAGAGCUCGAGAACAUCUUCGGAUGCAGAGGAGGCAGGCUUAGGUGGCGCGUUAGCCCCAACGUCCUCAACCUCCAAUGCAUCCCACCACAUGAUGAUGCCUGAAUAGCCUUGGUUUUUUG — lower, -7.24
- GACCAAUCUGCCCUCAGAGCUCGAGAACAUCUUCGGAUGCAGAGGAGGCAGGCUUAGGUGGCGCGAUAGCGGCAACCUCCUCAACCUCCAAUGCAUCUCACCACAUGAUGAUGCCUGAAGAGCCUUGAUUUUUUG — higher, -3.6
- GACCAAUCUGCCCUCAGAGCUCGAGAACAUCUUCGGAUGCAGAGGAGGCAGGCUGCGGUGGCGCGAUAGCGCCAACGUCCUCAACCUCCAAUGCAUCCCACCACAUGAUGAUCCCUGAAGAGCCUUGGUUUUUUG — higher, -0.955
- GACCAAUCUGCCCUCAGAGCUCGAGAACAUCUUCGGAUGCAGAGGAGGCAGGCUUAGGUGGUGCGAUAGCGCCAACGUCCUCAACCUCCAAUGCAUCCCACCACAUGAUGAUGCCUGAAGAGCCUUGGUUUUUUG — higher, -0.164
- GACCAAUCUGCCCUCAGAGCUCGAGAACAUCUUCGGAUGCAGAGGAGGCAGGCUUAGGUGGCGCGAUAGCGCCAACGUCCUCAACCUCCAAUGCCUCCCACCACAAGAUGAUGCCUGAAGAGCUUUGGUUUUUUG — higher, 0.424
- GACCAAUCUGCCCUCAGAGCUCGAGAACAUCUUCGGAUGCAGAGGAGGCAGGCUUAGGUGGCGCGAUAGCGCCAACGUCCUCAACCUCCAAUGCCUCCCACCACAAGAUGAUGCCUGAAGAGCCUUGAUUUUUUG — higher, -3.3
- GACCAAUCUGCCCUCAGAGCUCGAGAACAUCUUCGGAUGCAGAGGAGGCAGGCUUAGGUGGGGCGAUAGCGCCAACGUCCUCAACCUUCAAUGCAUCCCACCACAUGAUGAUGCCUGAAGAGCCUUGGUUUUUUG — within 0.2 log units, -3.82
- GACCAAUCUGCCCUCAGAGCUCGAGAACAUCUUCGGAUGCAGAGGAGGCAGGCUUAGGUGGAGCGAUAGCGCCAACGCUCUCAACCUCCAAUGCAUCCCACCACAUGAUGAUGCCUGAAGAGCCUUGGUUUUUUG — within 0.2 log units, -4.08
- GACCAAUCUGCCCUCAGAGCUCGAGAACAUCUUCGGAUGCAGAGGAGGCAGGCUGCGGUGGCGCGAUAGCGCCAACGUCCUCAACCACCAAUGCAUCGCACCACAUGAGGAUGCCUGAAGCGCCUUGGUUUUUUG — lower, -6.47
- GACCAAUCUGCCCUCAGAGCUCGAGAACAUCUUCGGAUGCAGAGGAGGCAGGCUUAGGUGGCGCGAUAGAGCCAACGUCCUCAACCUCCAAUGCAUCCCACCACAUGAUGAUGCCUGAAGAGCCUUGGUUUUUUG — higher, -2.72
- GACCAAUCUGCCCUCAGAGCUCGAGAACAUCUUCGGAUGCAGAGGAGGCAGGCUGCGGUGCCGCGAUAGCGCCAACGUCCUCAACCUCCAAUGCAUCCCACCACAUGAUGAUGCCUGAAGAGCCUUGGUUUUUUG — higher, -1.85
- GACCAAUCUGCCCUCAGAGCUCGAGAACAUCUUCGGAUGCAGAGGAGGCAGGCUGCGGUGGCGCGAUAGCACCAACGUCCUCAACCUCCAAUGCAUCCCACCACAUGAUGAUGCCUGAAGAGCCUUGGUUUUUUG — higher, -1.19
- GACCAAUCUGCCCUCAGAGCUCGAGAACAUCUUCGGAUGCAGAGGAGGCAGGCUUAGGUGGCGCGAUAGUGCCAACGUCUUCAACCUCCAAUGCAUCCCACCACAUGAUGAUGCCUGAACAGGCUUGGUUUUUUG — higher, -1.95
- GACCAAUCUGCCCUCAGAGCUCGAGAACAUCUUCGGAUGCAGAGGAGGCAGGCUUAGGUGGCGCGAUAGCGCCAACGUCCUCAUCCUCCAAUGAAUCCCACCACAUGAUGAUGACUGAAGAGCCUUGGUUUUUUG — higher, -3.7
- GACCAAUCUGCCCUCAGAGCUCGAGAACAUCUUCGGAUGCAGAGGAGGCAGGCUGCGGUGGCGCGAUAGCGCCAACGUCCUCAACCUCCAAUGCAUCCCACCACAUGAUGAUGCCUGAAGAGCCUUGGUUUCUUG — higher, -0.153
- GACCAAUCUGCCCUCAGAGCUCGAGAACAUCUUCGGAUGCAGAGGAGGCAGGCUUAGGUGGCGCGAUAGCGCCAACGUCCUCGACCUCCAAUGCAUCCCACCACAUGAUGAUGCCUGAAGAGCCUUGGGUUUUUG — higher, -2.3
- GACCAAUCUGCCCUCAGAGCUCGAGAACAUCUUCGGAUGCAGAGGAGGCAGGCUUAGGUGGCGCGAUAGCGGCAACGCCCUCAACCUCCAAUGCAUCCCACCACAUGAUGAUGCCUGAAGAGCCUUGGUUUUUUG — higher, -1.29
- GACCAAUCUGCCCUCAGAGCUCGAGAACAUCUUCGGAUGCAGAGGAGGCAGGCUUAGGUGGCGCGAUAGCGCCAACGUCCUCAACCUCCAAUGCAUCCCACCACAUGGUGAUGCCUUAAGAGCCUUGGUUUUUUG — within 0.2 log units, -3.81
- GACCAAUCUGCCCUCAGAGCUCGAGAACAUCUUCGGAUGCAGAGGAGGCAGGCUUAGGUGGCGCGAUAGCGCCAACGUCCUCAACCUCCAAUGCAUCCCACCACGUGAUGCUACCUGAAGAGCCUUGGUUUUUUG — lower, -5.31
- GACCAAUCUGCCCUCAGAGCUCGAGAACAUCUUCGGAUGCAGAGGAGGCAGGCUUAGGUGGCGCGAUAGAGCCAACCUCCUCAACCUCCAAUGCAUCCCACCACAUGAUGAUGCCUGAAGAGCCUUGGUUUUUUG — higher, -3.23
- GACCAAUCUGCCCUCAGAGCUCGAGAACAUCUUCGGAUGCAGAGGAGGCAGGCUUAGGUGGCGCGAUAGCGCCAACGUCCUCAGCCUCCAAUGCAUCCCACCAUAUGAUGAUGCCUGAAAAGCCUUGGUUUUUUG — higher, -1.12
- GACCAAUCUGCCCUCAGAGCUCGAGAACAUCUUCGGAUGCAGAGGAGGCAGGCUUAGGUGGCGCGAUAGCGCCAACGUCCUCAACCUCCAAUGCAUCCCACCACAUGAUGAUGCCUGAAGCGCCUUGGUUUUUUG — higher, 0.751
- GACCAAUCUGCCCUCAGAGCUCGAGAACAUCUUCGGAUGCAGAGGAGGCAGGCUUAGGUGGCGCGAUAGCGCCCACGUCCUCAACCUCCAAUGCAUCUCACCACAUGAUGAUGCCUGAAGAGCCUUGGUUUUUUG — higher, -0.178
- GACCAAUCUGCCCUCAGAGCUCGAGAACAUCUUCGGAUGCAGAGGAGGCAGGCUUAGGUGGCGCGAUAGCGCCAACGUCCUCAACCUCCAAUGCAUCCCACCACCUGAUGAUGCCUGAAGAGCCUUGGUUUUUUG — higher, -3.61
- GACCAAUCUGCCCUCAGAGCUCGAGAACAUCUUCGGAUGCAGAGGAGGCAGGCUUAGGUGGCGCGAUAGCGCCAACGUCCUCAACCUCCAAUGCCUCCCACAACAUGAUGAUGCCUGAAGAGCCUUGGUUUUUUG — higher, -3.39
- GACCAAUCUGCCCUCAGAGCUCGAGAACAUCUUCGGAUGCAGAGGAGGCAGGCUUAGGUGGCGUGAUAGCGCCAACGUCCUCAACCUCCAAUGCAUCCCACCACAUGAUGAUGACUGAAGAGCCUUGGUUUUUUG — higher, -2.59
- GACCAAUCUGCCCUCAGAGCUCGAGAACAUCUUCGGAUGCAGAGGAGGCAGGCUUAGGUGGCGAGAUAGCGCCAACGUCCUCAACCUCCAAUACAUCCCACCAAAUGAGGCUGCCUGAAGAGCCUUGGUUUUUUG — lower, -5.87
- GACCAAUCUGCCCUCAGAGCUCGAGAACAUCUUCGGAUGCAGAGGAGGCAGGCUUAGGUGGCGCGAUAGCGCCAACGUCCUCACCCUCCAAUGCAUCCCACCACAUGAUGAUGCCUGAAGAGCCUUGGUUUUUUG — higher, -1.1
- GACCAAUCUGCCCUCAGAGCUCGAGAACAUCUUCGGAUGCAGAGGAGGCAGGCUGCGGUGGCGCGAUAGCGCCAACGUCCUCAACCUCCAAUGCAUCCCACCACAUGAAGAUGCCUGAAGAGCCUUGGUUUUUUG — lower, -5.03
- GACCAAUCUGCCCUCAGAGCUCGAGAACAUCUUCGGAUGCAGAGGAGGCAGGCUGCGGUGGCGCGAUAGCGCCAACGUCCUCAACCUCCAAUGCAACCCACCACAUGAUGAUGCUUGAAGAGCCUUGGUUUUUUG — higher, -2.35
- GACCAAUCUGCCCUCAGAGCUCGAGAACAUCUUCGGAUGCAGAGGAGGCAGGCUUAGGUGGCGUGAUAGCGCCAACGUCCUCAACCUCCAAUGCAUCCCACCACAUGAUGAUGCCUGAACAGCCUUGGUUUUUUG — higher, -2.77
- GACCAAUCUGCCCUCAGAGCUCGAGAACAUCUUCGGAUGCAGAGGAGGCAGGCUGCGGUGGCGCGAUAGCGCCAACGUCCACAACCUCCAAUGCAUCCCACCACAUGAUGAUGCCUGAUGAGCCUUGGUUUUUUG — higher, -1.33
